In US20060204957A1, “Mta1s, a steriod hormone receptor corepressor” (priority 2002, published 2006):

Target: Estrogen Receptor α (ER) (UniProt P03372)
Experiment: cell-based or functional assay

Sequence of Estrogen Receptor α (ER) (P03372 whole entry): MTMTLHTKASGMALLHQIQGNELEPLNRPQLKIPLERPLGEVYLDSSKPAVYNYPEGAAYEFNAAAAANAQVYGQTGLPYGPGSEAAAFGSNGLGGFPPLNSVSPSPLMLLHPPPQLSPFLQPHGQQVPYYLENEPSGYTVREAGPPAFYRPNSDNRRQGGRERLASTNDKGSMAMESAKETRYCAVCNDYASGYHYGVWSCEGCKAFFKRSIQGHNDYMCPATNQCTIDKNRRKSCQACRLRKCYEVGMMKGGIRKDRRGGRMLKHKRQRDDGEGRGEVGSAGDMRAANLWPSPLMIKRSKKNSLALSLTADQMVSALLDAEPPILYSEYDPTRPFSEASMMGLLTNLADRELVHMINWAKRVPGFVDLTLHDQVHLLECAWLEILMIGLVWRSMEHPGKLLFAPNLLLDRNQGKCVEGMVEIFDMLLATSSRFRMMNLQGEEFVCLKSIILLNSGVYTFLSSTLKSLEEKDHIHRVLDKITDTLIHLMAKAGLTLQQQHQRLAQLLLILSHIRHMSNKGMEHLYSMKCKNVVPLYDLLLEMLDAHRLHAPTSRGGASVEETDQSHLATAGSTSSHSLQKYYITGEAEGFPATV

Substance: MTA1s-del (from UniProt Q13330 1-397)
- presence of ERα in the nucleus of estradiol stimulated MCF-7 cells: > 90%
